Results: the Immune Epitope Database (IEDB)

Legend:
HLA-A*11:01 = test: IEDB peptide-MHC binding, purified MHC/direct/fluorescence; filed as Kd, often an IC50 or EC50 that approximates it; ≥ and ≤ were set here for values at or beyond the usual limits of such assays; conditions: source organism: Cowpox virus
HLA-B*58:01 = test: as above; conditions: source organism: Cowpox virus
HLA-B*15:17 [1] = test: as above; conditions: source organism: Cowpox virus
HLA-B*51:01 [2] = test: as above; conditions: source organism: Cowpox virus
HLA-B*27:05 = test: as above; conditions: source organism: Cowpox virus
HLA-B*57:01 [3] = test: as above; conditions: source organism: Cowpox virus
HLA-B*18:01 [4] = test: as above; conditions: source organism: Cowpox virus
HLA-B*07:02 = test: as above
HLA-A*31:01 = test: as above; conditions: source organism: Cowpox virus
HLA-B*46:01 [5] = test: as above; conditions: source organism: Cowpox virus
HLA-A*01:01 = test: as above; conditions: source organism: Cowpox virus
HLA-B*40:01 = test: as above
HLA-B*15:01 [6] = test: as above; conditions: source organism: Cowpox virus
HLA-A*03:01 [7] = test: as above
HLA-B*48:01 = test: as above; conditions: source organism: Cowpox virus
HLA-B*08:01 = test: IEDB peptide-MHC binding, purified MHC/competitive/fluorescence; filed as Kd, often an IC50 or EC50 that approximates it; ≥ and ≤ were set here for values at or beyond the usual limits of such assays; conditions: source organism: Vaccinia virus Copenhagen
HLA-A*02:06 = test: as above; conditions: source organism: Vaccinia virus Copenhagen
HLA-B*15:42 = test: as above
HLA-B*45:06 = test: as above
HLA-A*26:01 = test: as above
HLA-A*02:03 [8] = test: as above
HLA-A*02:01 = test: as above
HLA-A*69:01 = test: as above
HLA-B*83:01 = test: as above
HLA-B*39:01 = test: as above
HLA-A*02:12 [9] = test: IEDB peptide-MHC binding, purified MHC/direct/fluorescence; filed as Kd, often an IC50 or EC50 that approximates it; ≥ and ≤ were set here for values at or beyond the usual limits of such assays
HLA-A*02:19 [10] = test: as above
HLA-A*68:02 [11] = test: as above
HLA-A*02:16 = test: as above
HLA-A*24:03 = test: as above
HLA-A*29:02 [12] = test: as above
HLA-A*02:11 = test: as above
HLA-A*02:03 [13] = test: as above
HLA-B*15:17 [14] = test: IEDB peptide-MHC binding, purified MHC/competitive/fluorescence; filed as Kd, often an IC50 or EC50 that approximates it; ≥ and ≤ were set here for values at or beyond the usual limits of such assays; conditions: source organism: Orthohantavirus andesense
HLA-B*51:01 [15] = test: as above
HLA-B*57:01 [16] = test: as above
HLA-B*18:01 [17] = test: as above
HLA-B*46:01 [18] = test: as above
HLA-B*15:01 [19] = test: as above
HLA-B*27:03 = test: as above
HLA-B*35:01 = test: as above; conditions: source organism: Orthohantavirus andesense
HLA-A*02:12 [20] = test: as above; conditions: source organism: Vibrio parahaemolyticus RIMD 2210633
HLA-A*02:19 [21] = test: as above; conditions: source organism: Vibrio parahaemolyticus RIMD 2210633
HLA-A*68:02 [22] = test: as above; conditions: source organism: Vibrio parahaemolyticus RIMD 2210633
HLA-A*29:02 [23] = test: as above; conditions: source organism: Vibrio parahaemolyticus RIMD 2210633
HLA-A*03:01 [24] = test: as above; conditions: source organism: Vibrio parahaemolyticus RIMD 2210633
[25] = source organism: Vaccinia virus Copenhagen
[26] = source organism: Orthohantavirus andesense
[27] = source organism: Vibrio parahaemolyticus RIMD 2210633

Sequence: YPPPRYITV
- Kd (HLA-A*11:01): ≥ 20 µM
- Kd (HLA-B*58:01): ≥ 20 µM
- Kd (HLA-B*15:17 [1]): ≥ 20 µM
- Kd (HLA-B*51:01 [2]): 0.179 µM
- Kd (HLA-B*27:05): ≥ 20 µM
- Kd (HLA-B*57:01 [3]): ≥ 20 µM
- Kd (HLA-B*18:01 [4]): ≥ 20 µM
- Kd (HLA-B*07:02; source organism: Cowpox virus): 0.113 µM
- Kd (HLA-A*31:01): ≥ 20 µM
- Kd (HLA-B*46:01 [5]): ≥ 20 µM
- Kd (HLA-A*01:01): ≥ 20 µM
- Kd (HLA-B*40:01; source organism: Cowpox virus): ≥ 20 µM
- Kd (HLA-B*15:01 [6]): ≥ 20 µM
- Kd (HLA-A*03:01 [7]; source organism: Cowpox virus): ≥ 20 µM
- Kd (HLA-B*48:01): ≥ 20 µM
- Kd (HLA-B*08:01): 0.543 µM
- Kd (HLA-A*02:06): 0.0114 µM
- Kd (HLA-B*15:42; [25]): ≥ 5 µM
- Kd (HLA-B*45:06; [25]): ≥ 5 µM
- Kd (HLA-A*26:01; [25]): ≥ 20 µM
- Kd (HLA-A*02:03 [8]; [25]): 0.239 µM
- Kd (HLA-A*02:01; [25]): 0.106 µM
- Kd (HLA-A*69:01; [25]): 0.0681 µM
- Kd (HLA-B*83:01; [25]): ≥ 5 µM
- Kd (HLA-B*39:01; [25]): 3.58 µM

Sequence: LEEDIQHFL
- Kd (HLA-A*02:12 [9]; [26]): ≥ 20 µM
- Kd (HLA-A*02:19 [10]; [26]): ≥ 20 µM
- Kd (HLA-A*68:02 [11]; [26]): ≥ 20 µM
- Kd (HLA-A*02:16; [26]): ≥ 20 µM
- Kd (HLA-A*24:03; [26]): ≥ 20 µM
- Kd (HLA-A*29:02 [12]; [26]): ≥ 20 µM
- Kd (HLA-A*02:11; [26]): ≥ 20 µM
- Kd (HLA-A*02:03 [13]; [26]): ≥ 20 µM
- Kd (HLA-B*40:01; [26]): 0.0002 µM
- Kd (HLA-A*03:01 [7]; [26]): ≥ 20 µM
- Kd (HLA-B*15:17 [14]): ≥ 20 µM
- Kd (HLA-B*15:42; [26]): ≥ 5 µM
- Kd (HLA-B*45:06; [26]): ≥ 5 µM
- Kd (HLA-B*51:01 [15]; [26]): ≥ 20 µM
- Kd (HLA-B*57:01 [16]; [26]): ≥ 20 µM
- Kd (HLA-B*18:01 [17]; [26]): ≥ 20 µM
- Kd (HLA-B*46:01 [18]; [26]): ≥ 20 µM
- Kd (HLA-A*26:01; [26]): ≥ 20 µM
- Kd (HLA-A*02:01; [26]): ≥ 20 µM
- Kd (HLA-A*69:01; [26]): ≥ 20 µM
- Kd (HLA-B*15:01 [19]; [26]): ≥ 20 µM
- Kd (HLA-B*83:01; [26]): ≥ 5 µM
- Kd (HLA-B*39:01; [26]): ≥ 20 µM
- Kd (HLA-B*27:03; [26]): ≥ 20 µM

Sequence: KPKALSEAF
- Kd (HLA-A*02:12 [9]; source organism: Oran virus): ≥ 20 µM
- Kd (HLA-A*02:19 [10]; source organism: Oran virus): ≥ 20 µM
- Kd (HLA-A*68:02 [11]; source organism: Oran virus): ≥ 20 µM
- Kd (HLA-A*02:16; source organism: Oran virus): ≥ 20 µM
- Kd (HLA-A*24:03; source organism: Oran virus): ≥ 20 µM
- Kd (HLA-A*29:02 [12]; source organism: Oran virus): ≥ 20 µM
- Kd (HLA-B*07:02; source organism: Oran virus): 0.0765 µM
- Kd (HLA-A*02:11; source organism: Oran virus): ≥ 20 µM
- Kd (HLA-A*02:03 [13]; source organism: Oran virus): ≥ 20 µM
- Kd (HLA-A*03:01 [7]; source organism: Oran virus): ≥ 20 µM
- Kd (HLA-B*15:17 [14]): ≥ 20 µM
- Kd (HLA-B*51:01 [15]; [26]): ≥ 20 µM
- Kd (HLA-B*57:01 [16]; [26]): ≥ 20 µM
- Kd (HLA-B*18:01 [17]; [26]): ≥ 20 µM
- Kd (HLA-B*46:01 [18]; [26]): ≥ 20 µM
- Kd (HLA-A*26:01; [26]): ≥ 20 µM
- Kd (HLA-A*02:01; [26]): ≥ 20 µM
- Kd (HLA-A*69:01; [26]): ≥ 20 µM
- Kd (HLA-B*15:01 [19]; [26]): ≥ 20 µM
- Kd (HLA-B*39:01; [26]): ≥ 20 µM
- Kd (HLA-B*35:01): 0.0223 µM
- Kd (HLA-B*27:03; [26]): ≥ 20 µM

Sequence: HVIYFTAFT
- Kd (HLA-A*02:12 [20]): ≥ 20 µM
- Kd (HLA-A*02:19 [21]): ≥ 20 µM
- Kd (HLA-A*68:02 [22]): 0.0577 µM
- Kd (HLA-A*29:02 [23]): ≥ 20 µM
- Kd (HLA-B*51:01 [15]; [27]): ≥ 20 µM
- Kd (HLA-B*57:01 [16]; [27]): ≥ 20 µM
- Kd (HLA-B*18:01 [17]; [27]): ≥ 20 µM
- Kd (HLA-B*46:01 [18]; [27]): ≥ 20 µM
- Kd (HLA-A*26:01; [27]): ≥ 20 µM
- Kd (HLA-A*02:03 [8]; [27]): ≥ 20 µM
- Kd (HLA-A*02:01; [27]): ≥ 20 µM
- Kd (HLA-B*15:01 [19]; [27]): ≥ 20 µM
- Kd (HLA-B*39:01; [27]): ≥ 20 µM
- Kd (HLA-A*03:01 [24]): ≥ 20 µM
- Kd (HLA-B*27:03; [27]): ≥ 20 µM
